Experimental data as given in patent US20160046944, “APTAMER TO IL-17 AND USE THEREOF” (THE UNIVERSITY OF TOKYO, published 2016).
Changes are numbered by the printed parent chain.

T1: IL-17 (Homo sapiens, UniProt Q16552 Q16552:24-155)
T1 sequence: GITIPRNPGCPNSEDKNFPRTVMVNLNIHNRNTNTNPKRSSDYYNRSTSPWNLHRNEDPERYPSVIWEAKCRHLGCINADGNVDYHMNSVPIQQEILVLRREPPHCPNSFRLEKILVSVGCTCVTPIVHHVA

T2: IL-17 (IL-17A) (Homo sapiens, UniProt Q16552 Q16552:24-155)
T2 sequence: T1 sequence

B1: aptamer No. 55 (mixed)
mixed: GGGUAGCCGGAGGAGTCAGTGAUCGGUACCC
modifications: 2'-OMe (M), 2'-F (F), PS (S) as marked; uppercase DNA [2'-OMe: 1,2,3,4,7,8,10,13,14,23,24,25,26,28; 2'-F: 11,17,18,27; PS: 6]
B2: aptamer No. 52 (mixed)
mixed: B1 mixed with G21A
modifications: g(M)g(M)g(M)u(M)Ag(S)c(M)c(M)Gg(M)a(F)gg(M)a(M)g(S)Tc(F)a(F)gTa(M)a(M)u(M)c(M)g(M)g(M)u(F)a(M)CCC
B3: aptamer No. 26 (mixed)
mixed: B1 mixed with G21A, U27T
modifications: (M)=2'-OMe,(F)=2'-F,(S)=PS, lowercase RNA, uppercase DNA: g(M)g(M)g(M)u(M)Ag(S)c(M)c(M)Gg(M)Agg(M)a(M)gTc(F)agTaau(M)c(M)g(M)g(M)Ta(M)c(M)c(M)c(M)
B4: aptamer No. 35 (mixed)
mixed: B1 mixed with G21A, U27T
modifications: g(M)g(M)g(M)u(M)Agc(M)c(M)Gg(M)Agg(M)a(M)gTc(F)AgTa(M)Au(M)c(M)g(M)g(M)Ta(M)c(M)c(M)c(M)
B5: aptamer No. 31 (mixed)
mixed: B1 mixed with G21A, U27T
modifications: g(M)g(M)g(M)u(M)Ag(S)c(M)c(M)Gg(M)Agg(M)a(M)gTc(F)agTaau(M)c(M)g(M)g(M)TAc(M)c(M)c(M)
B6: aptamer No. 47 (mixed)
mixed: B1 mixed with G21A
modifications: g(M)g(M)g(M)u(M)Agc(M)c(M)Gg(M)a(F)gg(M)a(M)gTc(F)a(F)gTaau(M)c(M)g(M)g(M)u(F)a(M)CCC
B7: aptamer No. 30 (mixed)
mixed: B1 mixed with G21A, U27T
modifications: g(M)g(M)g(M)u(M)Agc(M)c(M)Gg(M)Agg(M)a(M)gTc(F)agTa(M)Au(M)c(M)g(M)g(M)Ta(M)c(M)c(M)c(M)
B8: aptamer No. 29 (mixed)
mixed: B1 mixed with G21A, U27T
modifications: g(M)g(M)g(M)u(M)Agc(M)c(M)Gg(M)Agg(M)a(M)gTc(F)agTa(M)a(M)u(M)c(M)g(M)g(M)Ta(M)c(M)c(M)c(M)
B9: aptamer No. 49 (mixed)
mixed: B1 mixed with G21A
modifications: g(M)g(M)g(M)u(M)Agc(M)c(M)Gg(M)Agg(M)a(M)gTc(F)agTaau(M)c(M)g(M)g(M)u(F)a(M)CCC (one (M) misprinted as (PI))
B10: aptamer No. 74 (mixed)
mixed: B1 mixed with G21A
modifications: 2'-OMe (M), 2'-F (F) as marked; uppercase DNA [2'-OMe: 1-5,7,8,10,13,14,21-26,28-31; 2'-F: 11,17,18,27]
B11: aptamer No. 57 (mixed)
mixed: B1 mixed with G21A
modifications: 2'-OMe (M), 2'-F (F), PS (S) as marked; uppercase DNA [2'-OMe: 1,2,3,4,7,8,10,13,14,19,21,22,23,24,25,26,28; 2'-F: 11,17,18,27; PS: 6,15]
B12: aptamer No. 61 (mixed)
mixed: B1 mixed with G21A
modifications: 2'-OMe (M), 2'-F (F), PS (S) as marked; uppercase DNA [2'-OMe: 1,2,3,4,7,8,10,11,13,14,19,21,22,23,24,25,26,28; 2'-F: 17,18,27; PS: 6,15]
B13: aptamer No. 67 (mixed)
mixed: B1 mixed with G21A
modifications: 2'-OMe (M), 2'-F (F), PS (S) as marked; uppercase DNA [2'-OMe: 1-5,7,8,10,13,14,17,21-31; 2'-F: 11,18; PS: 6,15,19]
B14: aptamer No. 88 (mixed)
RNA: B1 mixed with T16U, T20U
modifications: 2'-OMe (M), 2'-F (F), PS (S) as marked; uppercase DNA [2'-OMe: 1-5,7,8,10,11,13,14,17,22-26,28-31; 2'-F: 16,18,20,27; PS: 6,15,19; DNA: 9]
B15: aptamer No. 71 (mixed)
RNA: B1 mixed with T16U, T20U, G21A
modifications: 2'-OMe (M), 2'-F (F), PS (S) as marked; uppercase DNA [2'-OMe: 1-5,7,8,10,13,14,17,21-26,28-31; 2'-F: 11,16,18,20,27; PS: 6,15,19]
B16: aptamer No. 50 (ssRNA)
RNA: GGUCUAGCCGGAGGAGUCAGUAAUCGGUAGACC
modifications: 2'-F all U and C except none: ggu(F)c(F)u(F)agc(F)c(F)ggaggagu(F)c(F)agu(F)aau(F)c(F)ggu(F)agac(F)c(F)

These binders were tested against T1, IL-17 (assay: SPR; IL-17 150 nM, aptamer 12.5 or 50 nM). Details: chain copies: 2.
Description: Whether the synthesized aptamers inhibit the binding of IL-17 and IL-17 receptor was evaluated by the surface plasmon resonance method.
For the measurement, BIAcore T100 manufactured by GE Healthcare Bio Sciences was used. […] As an analyte, IL-17 (150 nM) and each aptamer (12.5 or 50 nM) shown by Table 3 were mixed, maintained for 15 min and after that the mixture was flown.
For B1, the binding signal was 19 % IL-17/IL-17R binding remaining.

The binders below were run against T2, IL-17 (IL-17A) (assay: cell_activity; IL-6 release (ELISA), NIH3T3). Details: chain copies: 2.
Description: (§1) First, human IL-17 and the aptamer produced in Example 1-2 were pre-incubated at 37° C. for 30 min, and added to NIH3T3 cell (ATCC, CRL1658) together with mouse TNFα (2 ng/mL). Then, after incubation for 24 hr, the culture supernatant was collected, and the production amount of IL-6 was measured by ELISA method described below. The IL-17 inhibitory action of each aptamer was determined from the production amount of IL-6. For comparison with the aptamer of the present invention, a conventionally-known aptamer (aptamer No. 50) against IL-17 was used.
(§2) ELISA method for verifying IL-17 inhibitory action of aptamer: A microtiter plate for ELISA was coated with rat anti-mouse IL-6 antibody (BD Biosciences, 2 μg/mL; 100 μL/well) diluted with PBS, and incubated at 4° C. overnight. The next day, the microtiter plate was washed 3 times with PBS/0.05% Tween 20, and applied blocking with PBS/1% BSA (200 μL/well) at room temperature for 2 hr. Then, the plate was washed 3 times with PBS/0.05% Tween 20. Recombinant mouse IL-6 (BD Biosciences; 100 μL/well) serially diluted with PBS/1% BSA/0.05% Tween 20 or culture supernatants (100 μL/well) were added to the plate. […] After 15 min, aqueous sodium hydroxide solution (2N: 50 μL/well) was added to stop the reaction, and the plate was read on a microtiter reader (Bio-Rad) by using a 405 nm filter.
B2 showed an IC50 of 1.11 nM.

The binders below were run against T2, IL-17 (IL-17A) (assay: cell_activity; IL-6 release, NIH3T3, 37 C). Details: chain copies: 2.
Description: as §1, with “1-1” for “1-2”, “the” for “the production”, “BD Cytometric Bead Array (BD Biosciences).” for “ELISA method described below.”
B3 showed an IC50 of 0.78 nM.

The binders below were run against T2, IL-17 (IL-17A) (assay: cell_activity; IL-6 release, NIH3T3). Details: chain copies: 2.
Description: as §1, with “1-1” for “1-2”, “the” for “the production”, “BD Cytometric Bead Array (BD Biosciences).” for “ELISA method described below.”
In the case of B4, the IC50 is reported as 2.47 nM.
Work on B5 yielded an IC50 of 0.3 nM.
With GGGUAGCCGGAGGAGTCAGTAAUCGGTACCC (mixed, g(M)g(M)g(M)u(M)Agc(M)c(M)gg(M)Agg(M)a(M)gTc(F)agTa(M)Au(M)c(M)g(M)g(M)TACCC) [aptamer No. 33] the IC50 was 4.31 nM.
B6 gave an IC50 of 0.59 nM.
B7 gave an IC50 of 1.49 nM.
Work on B8 yielded an IC50 of 2.53 nM.
In the case of GGGUAGCCGGAGGAGTCAGTAAUCGGTACCC (mixed, g(M)g(M)g(M)u(M)Agc(M)c(M)gg(M)Agg(M)a(M)gTc(F)agTa(M)a(M)u(M)c(M)g(M)g(M)TACCC) [aptamer No. 32], the IC50 is reported as 4.62 nM.
With B9 the IC50 was 0.65 nM.
Binder GGGUAGCCGGAGGAGTCAGTAAUCGGUACCC (mixed, g(M)g(M)g(M)u(M)Agc(M)c(M)Gg(M)agg(M)a(M)gTc(F)agTaau(M)c(M)g(M)g(M)u(F)a(M)CCC) [aptamer No. 48] has an IC50 of 0.3 nM.

The binders below were run against T1, IL-17 (assay: cell_activity; NIH3T3 IL-6 release). Details: chain copies: 2.
Description: as §1
ELISA method for verifying IL-17 inhibitory action of aptamer: A microtiter plate for ELISA was coated with rat anti-mouse IL-6 antibody (BD Biosciences, 2 μg/mL; 100 μL/well) diluted with PBS, and incubated at 4° C. overnight. The next day, the microtiter plate was washed 3 times with PBS/0.05% Tween 20, and applied blocking with PBS/1% BSA (200 μL/well) at room temperature for 2 hr. Then, the plate was washed 3 times with PBS/0.05% Tween 20. Recombinant mouse IL-6 (BD Biosciences; 100 μL/well) serially diluted with PBS/1% BSA/0.05% Tween 20 or culture supernatants (100 μL/well) were added to the plate. After incubation at room temperature for 2 hr, the plate was washed 3 times with PBS/0.05% Tween 20. Then, 100 μL/well of biotin conjugated rat anti-mouse IL-6 antibody (BD Biosciences) was added to the plate at final dilution of 1/500, and the mixture was reacted at room temperature for 1 hr. After washing 3 times with PBS/0.05% Tween 20, 100 μL/well of alkaline phosphatase conjugated streptavidin was added at final dilution of 1/1000. After 30 min at room temperature, the plate was again washed 4 times with PBS/0.05% Tween 20, and a substrate (1-Step PNPP; Thermo Fisher Scientific Inc; 100 μL/well) was added. After 15 min, aqueous sodium hydroxide solution (2N: 50 μL/well) was added to stop the reaction, and the plate was read on a microtiter reader (Bio-Rad) by using a 405 nm filter.
For B1, the IC50 was 0.11 nM.
B10 was tested, and the IC50 was 1.06 nM.
B11 gave an IC50 of 2.36 nM.
Binder B12 has an IC50 of 3.41 nM.
B13 was tested, and the IC50 was 5.95 nM.
B14 showed an IC50 of 2.88 nM.
For B15, the IC50 was 5.54 nM.

The binders below were run against T1, IL-17 (assay: cell_activity; NIH3T3 IL-6 release, human IL-17 + mouse TNFa, 37 C; 8.63 nM in Table 6). Details: chain copies: 2.
Description: as §1, §2
B16 was tested, and the IC50 was 7.36 nM.
